Biological target: 6His-NS5 RdRp(270-900) of DENV-2 NGC strain (DENV-2 NGC strain)
Assay: ELISA
Conditions: both partners purified

EGEWKEGEEVQVLAL [NS3(86-100) peptide of DENV-2]
IC50: > 200 µM
